Assay [1] addresses T1, hSIRPγD1 with histidine tag (human, UniProt Q9P1W8 31-149).
T1 construct: also called first immunoglobulin-like domain of human SIRP Gamma; not shown: histidine tag
Description: SPR (Biacore 3000), IgG captured on anti-human IgG, His-tagged D1 analyte. The text has this: (§1) Goat anti-human IgG capture antibody (Jackson Laboratories; 109-005-098) was immobilized on the four flow cells in each sensor chip using standard amine coupling chemistry. About 8000 resonance units (RU) of this antibody was immobilized on each flow cell. Flow cells 2, 3, and 4 were used to analyze captured anti-SIRPα antibodies (about 250 to 300 RU were captured on each of flow cells 2, 3, and 4), while flow cell 1 was used as the reference flow cell. The analytes tested were hSIRPαV1D1, hSIRPαV2D1, cynomolgus monkey SIRPαV1D1 (cSIRPαV1D1), cSIRPαV2D1, hSIRPβ1D1, and hSIRPγD1, each of which also included a histidine tag. The sequences of cSIRPαV1D1 and cSIRPαV2D2 are provided in SEQ ID NOs: 143 and 142, respectively. To avoid confusion, the differences between the amino acid sequences of cSIRPαV1D1 and cSIRPαV2D1 are not the same as the differences between the amino acid sequences of hSIRPαV1D1 and hSIRPαV2D1. […] The amino acid sequence of hSIRPβ1D1 can be found in amino acids 30-148 of SEQ ID NO: 144, and the amino acid sequence of hSIRPγD1 can be found in amino acids 31-149 of SEQ ID NO: 141.
(§2) Generally, concentrations from about 0.1×KD to about 10×KD are appropriate for kinetic analysis. From one to six different concentrations were evaluated for each antibody:analyte interaction, depending on the comparisons to be made in an individual experiment. All analyte dilutions were prepared in HPS-EP buffer. Multiple blank (running buffer) injections were run and used to assess and subtract system artifacts. The association phase and dissociation phase for all analyte concentrations were monitored for 180 seconds and 300 seconds, respectively, at a flow rate of 50 μL/min. Between antibody samples, the surfaces of the flow cells were regenerated with 10 mM glycine, pH 1.5 using two injections, each lasting 12 seconds at a flow rate of 50 μL/min.
(§3) The data were analyzed using BIAevaluation software (Biacore, General Electric (GE)). The data was fit using the 1:1 Langmuir model.
A general note: SPR reads the build-up and loss of mass on a sensor chip optically.

The target of assay [2] is T2, hSIRPαV1D1 with histidine tag (human, UniProt P78324 31-147).
T2 construct: analyte of the Biacore experiments; also called first immunoglobulin-like domain of human SIRPα variant V1; not shown: histidine tag
T2 sequence (P78324 31-147 limits assumed): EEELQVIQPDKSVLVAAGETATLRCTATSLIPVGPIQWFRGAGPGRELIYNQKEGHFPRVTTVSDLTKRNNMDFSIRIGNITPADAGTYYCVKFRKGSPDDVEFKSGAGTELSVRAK
The description is as above.
From the text: as §1, §2, §3

Assay [3] concerns the target T3, hSIRPβ1D1 with histidine tag (human, UniProt O00241 30-148).
T3 construct: analyte of the Biacore experiments; also called hSIRPβD1; not shown: histidine tag
Described as above.
From the text: as §1, §2, §3

Assay [4] deals with T4, cSIRPαV1D1 with histidine tag (cynomolgus monkey (Macaca fascicularis), UniProt Q5TFQ8 30-146 (human entry)).
T4 construct: also called cynomolgus monkey SIRPαV1D1; not shown: histidine tag
T4 chain: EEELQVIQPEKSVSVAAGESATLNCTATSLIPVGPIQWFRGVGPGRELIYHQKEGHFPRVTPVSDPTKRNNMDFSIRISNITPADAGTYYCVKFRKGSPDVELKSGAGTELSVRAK
Described as above.
From the text: as §1, §2, §3

Assay [5] deals with T5, hSIRPαV2D1 with histidine tag (human).
T5 construct: analyte of the Biacore experiments; also called first immunoglobulin-like domain of human SIRPα variant V2; not shown: histidine tag
T5 sequence (chain, as listed by the source limits assumed): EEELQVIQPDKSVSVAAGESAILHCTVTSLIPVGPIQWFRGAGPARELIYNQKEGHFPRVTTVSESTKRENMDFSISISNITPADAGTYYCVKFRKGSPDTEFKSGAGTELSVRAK
The assay is described as above.
From the text: as §1, §2, §3

Assay [6] concerns the target T6, cSIRPαV2D1 with histidine tag (cynomolgus monkey (Macaca fascicularis), UniProt Q5TFQ8 30-146 (human entry)).
T6 construct: also called cynomolgus monkey SIRPαV2D1; not shown: histidine tag
T6 chain: T4 chain with E19D, A27V, T28S, V42A, H51N, Q52L
Described as above.
From the text: as §1, §2, §3

Assay [7] addresses T7, hSIRPαV2 expressed on the cell surface (human, UniProt P78324 31-504).
T7 construct: whole, on cells; also called human SIRPα variant V2
Description: FACS competition on EXPI293 cells stably expressing hSIRPαV2: biotinylated hCD47:Fc (2.5 µg/ml) mixed with serial dilutions of the antibody, bound hCD47:Fc detected with streptavidin-PE (MFI); blocked ligand: hCD47:Fc. How it is done: The x axes show the antibody concentration in μg/ml. The y axes show mean fluorescence intensity (MFI) at about 572 nm (due to binding of biotinylated CD47:Fc, detected by a streptavidin-phycoerythrin conjugate).
Some of the anti-SIRPα antibodies described above were tested in vitro for their ability to inhibit binding of CD47 to hSIRPαV1 or hSIRPαV2 expressed on the surface of EXPI293™ cells stably transfected with DNA encoding these proteins. Briefly, stable transfectants expressing hSIRPαV1 or hSIRPαV2 were seeded into 96-well microtiter plates. […] After 30 minutes incubation, cells were washed, streptavidin-phycoerythrin (streptavidin-PE) was added, and cells were subjected to FACS to detect bound hCD47:Fc. Results were reported as a mean fluorescence intensity (MFI) using FlowJo software (FLOWJO, L.L.C., Ashland, Oreg., USA). FIGS. 4 and 5 show the MFI detected on the y axes of both panels and the antibody concentration on the x axes of both panels.

Substitutions are numbered along the chain they refer to.

We go through eight molecules from patent publication US20220235144A1 (QILU PUGET SOUND BIOTHERAPEUTICS, published 2022).

T1 sequence (Q9P1W8 31-149): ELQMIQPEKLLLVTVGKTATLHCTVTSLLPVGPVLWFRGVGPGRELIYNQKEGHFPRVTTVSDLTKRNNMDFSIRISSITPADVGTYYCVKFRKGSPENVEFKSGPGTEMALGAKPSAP
T3 sequence (O00241 30-148): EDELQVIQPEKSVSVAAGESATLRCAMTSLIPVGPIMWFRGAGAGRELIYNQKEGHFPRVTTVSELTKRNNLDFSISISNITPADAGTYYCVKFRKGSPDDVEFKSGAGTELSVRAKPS
T7 sequence (P78324 other isoform, or with tags, fused parts or gaps limits assumed): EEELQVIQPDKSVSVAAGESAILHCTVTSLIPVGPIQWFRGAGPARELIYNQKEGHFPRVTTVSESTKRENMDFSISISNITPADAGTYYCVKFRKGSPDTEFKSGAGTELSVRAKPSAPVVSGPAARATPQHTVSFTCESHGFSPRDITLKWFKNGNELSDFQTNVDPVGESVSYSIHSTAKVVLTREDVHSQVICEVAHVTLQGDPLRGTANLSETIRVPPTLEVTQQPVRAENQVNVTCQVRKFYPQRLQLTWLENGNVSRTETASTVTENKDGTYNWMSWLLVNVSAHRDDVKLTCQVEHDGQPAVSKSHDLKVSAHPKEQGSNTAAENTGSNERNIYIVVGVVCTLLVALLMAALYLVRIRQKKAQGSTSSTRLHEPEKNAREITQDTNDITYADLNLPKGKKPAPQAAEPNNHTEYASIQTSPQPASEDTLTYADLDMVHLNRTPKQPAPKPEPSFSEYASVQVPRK

B1: Ab2_G4 (antibody, human IgG4 S228P, kappa, V domains shown)
VH: EVQLVESGGGLVKPGGSLRLSCAASGFTFSSYVMSWVRQTPGKGLEWVATISSGGTYTYYPDSVKGRFTLSRDNAKNSLYLQMNSLRAEDTAVYYCASSVDGSAFDYWGQGTTVTVSS
VL: DIVITQSPASLAVSLGERATISCRASESVDSYGMSFMHWYQQKPGQPPKLLIYRASNLESGVPDRFSGSGSRTDFTLTINPLQAEDVATYYCHQSSENLPWTFGGGTKVEIKR
notes: human IgG4 format
As to B1, the Kd in assay [1] was approximately 944 nM; in assay [2] it was 226 nM; in assay [3], 53.6 nM; in assay [4] it was 145 nM; in assay [5] it was 3.06 nM; in assay [6], approximately 709 nM.

B2: Ab11_G2 (antibody, human IgG2, V domains shown)
VH: B1 VH with S99Q, V100L, D101T, A104E
VL: DIVITQSPASLAVSLGERATISCRASESVDSYGNSFMHWYQQKPGQPPKLLIYRASNLESGVPDRFSGSGSRTDFTLTINPLQAEDVATYYCHQSGDLPWTFGGGTKVEIKR
notes: same antibody as Ab11_G4 except human IgG2 CH1, hinge, CH2 and CH3
As for B2, the Kd is approximately 3060 nM in assay [1]; 125 nM in assay [2]; 8.58 nM in assay [3]; 98 nM in assay [4]; 1.92 nM in assay [5]; approximately 475 nM in assay [6].

B3: Ab1_G2 (antibody, human IgG2, V domains shown)
VH: B1 VH with D62S, V100L, D101T, A104S
VL: B1 VL with I4L, S31L, M34T, E97D, N98E
Take B3: the Kd in assay [1] is 168 nM; in assay [2] it was 50.7 nM; in assay [3], 1.39 nM; in assay [4], 26.9 nM; in assay [5], 2.51 nM; in assay [6] it was 287 nM.

B4: Ab9_G4 (antibody, human IgG4 S228P, kappa, V domains shown)
VH: B1 VH with D62N, A97V, V100M, D101T, A104S
VL: B1 VL with M34N, N98Q
notes: human IgG4 format
In the case of B4, the Kd in assay [1] was approximately 616 nM; in assay [2], 102 nM; in assay [3], 6.43 nM; in assay [4], 183 nM; in assay [5], 2.97 nM; in assay [6] it was approximately 432 nM. For the same molecule, the “IC50 (read off the curve)” value in assay [7] is approximately 0.4 µg/mL.

B5: Ab9_G2 (antibody, human IgG2, V domains shown)
VH: B1 VH with D62N, A97V, V100M, D101T, A104S
VL: B1 VL with M34N, N98Q
notes: same antibody as Ab9_G4 except human IgG2 CH1, hinge, CH2 and CH3
Take B5: the Kd was approximately 457 nM in assay [1]; 75 nM in assay [2]; 6.63 nM in assay [3]; 155 nM in assay [4]; 2.11 nM in assay [5]; approximately 426 nM in assay [6].

B6: Ab4_G4 (antibody, human IgG4 S228P, kappa)
heavy: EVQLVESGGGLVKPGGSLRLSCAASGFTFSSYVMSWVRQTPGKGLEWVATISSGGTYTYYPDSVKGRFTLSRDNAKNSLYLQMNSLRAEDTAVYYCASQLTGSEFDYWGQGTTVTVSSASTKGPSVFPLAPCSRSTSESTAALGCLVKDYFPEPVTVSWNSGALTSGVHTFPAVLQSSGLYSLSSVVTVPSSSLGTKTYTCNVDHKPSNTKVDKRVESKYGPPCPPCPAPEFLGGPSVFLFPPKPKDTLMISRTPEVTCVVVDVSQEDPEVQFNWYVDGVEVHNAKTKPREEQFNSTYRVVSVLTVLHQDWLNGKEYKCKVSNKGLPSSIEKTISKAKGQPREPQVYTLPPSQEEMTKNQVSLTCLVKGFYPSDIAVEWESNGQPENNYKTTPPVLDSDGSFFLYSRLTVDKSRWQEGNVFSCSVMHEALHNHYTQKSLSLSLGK
light: DIVITQSPASLAVSLGERATISCRASESVDSYGNSFMHWYQQKPGQPPKLLIYRASNLESGVPDRFSGSGSRTDFTLTINPLQAEDVATYYCHQSADLPWTFGGGTKVEIKRTVAAPSVFIFPPSDEQLKSGTASVVCLLNNFYPREAKVQWKVDNALQSGNSQESVTEQDSKDSTYSLSSTLTLSKADYEKHKVYACEVTHQGLSSPVTKSFNRGEC
notes: human IgG4 format
Regarding B6, the Kd was approximately 4560 nM in assay [1]; 307 nM in assay [2]; 24.3 nM in assay [3]; 165 nM in assay [4]; 4.04 nM in assay [5]; approximately 714 nM in assay [6].

B7: Ab12_G4 (antibody, human IgG4 S228P, kappa)
heavy: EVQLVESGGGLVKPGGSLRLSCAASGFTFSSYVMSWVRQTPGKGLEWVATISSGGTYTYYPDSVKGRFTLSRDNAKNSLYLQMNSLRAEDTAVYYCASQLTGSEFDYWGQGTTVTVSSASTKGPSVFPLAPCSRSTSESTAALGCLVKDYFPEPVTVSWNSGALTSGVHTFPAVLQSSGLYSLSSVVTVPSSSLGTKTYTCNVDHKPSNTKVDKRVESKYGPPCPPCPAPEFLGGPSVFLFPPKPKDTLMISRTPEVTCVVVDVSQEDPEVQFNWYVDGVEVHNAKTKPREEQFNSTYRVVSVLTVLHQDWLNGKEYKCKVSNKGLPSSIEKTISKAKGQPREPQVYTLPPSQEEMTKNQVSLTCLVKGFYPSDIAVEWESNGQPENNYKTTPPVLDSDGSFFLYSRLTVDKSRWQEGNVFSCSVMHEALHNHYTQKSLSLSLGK
light: B6 light with I4L
notes: human IgG4 format
As to B7, the Kd was approximately 5020 nM in assay [1]; 348 nM in assay [2]; 29 nM in assay [3]; 197 nM in assay [4]; 4.6 nM in assay [5]; approximately 727 nM in assay [6].

B8: Ab8_G4 (antibody, human IgG4 S228P, kappa, V domains shown)
VH: B1 VH with D62E, S99Q, V100L, D101T, A104E
VL: B2 VL with I4M, G96A
notes: human IgG4 format
Consider B8, for which the Kd in assay [1] was approximately 6200 nM; in assay [2], 411 nM; in assay [3] it was 44.3 nM; in assay [4], 256 nM; in assay [5], 6.02 nM; in assay [6], approximately 1050 nM.

Usually Kd stands for the concentration at which binding is half-saturated.
